Test results: the supplement of paper PMC10126150
± gives the standard deviation of the averaged measurements.

Tested on: ATP
Assay: switch fluorescence ratio, 500 uM ATP over buffer (Cy3 cluster intensity, sum of 5 cycles each) (fold (ratio)); higher = stronger signal-on switching upon ATP binding; sequences stand for … in TCGTCGGCAGCGTCAGATGTGTATAAGAGACAGTTTTTTTTTTTTTTTTTTTTTTTTT…TC
Settings: aptamer strand: ATP DNA aptamer (quencher-CACCTGGGGGAGTATTGCGGAGGAAGG + anchor), 100 nM annealed; ATP concentration: 500 uM
Summary of the method: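 After annealing to 100 nM quencher-labelled ATP aptamer, Cy3-labelled switching-strand clusters on a modified Illumina MiSeq flow-cell were imaged in selection buffer. A second image followed after 15 min with 500 uM ATP at 22 °C, and five such buffer/ATP cycles were done, each separated by NaOH stripping and re-annealing. The fluorescence ratio, averaged per switch-domain sequence, is summed target-cycle over summed buffer-cycle Cy3 intensity per cluster, with clusters outside 100-1000 RFU excluded.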
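Note: ATP exposure 15 min at 22 °C before imaging.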

CTTTTTAACA
switch fluorescence ratio: 0.9742 ± 0.0062

CTTTTTGGGG
switch fluorescence ratio: 0.981 ± 0.029

GAAAAAAGTA
switch fluorescence ratio: 1.01 ± 0.031

GAAAAAAGTG
switch fluorescence ratio: 0.994 ± 0.047

GAAAAAATTT
switch fluorescence ratio: 1.031 ± 0.0019

GAAAAAGAGA
switch fluorescence ratio: 0.9736 ± 0.0016

GAAAAAGCGT
switch fluorescence ratio: 1.07 ± 0.03

GAAAAATTAC
switch fluorescence ratio: 1.49 ± 0.75

GAAAAGGGTT
switch fluorescence ratio: 0.978 ± 0.032

GAAAAGTTTT
switch fluorescence ratio: 0.969 ± 0.018

GAAAATAACG
switch fluorescence ratio: 1.11 ± 0.15

GAAAATTGGT
switch fluorescence ratio: 0.997 ± 0.023

GAAACTGCTG
switch fluorescence ratio: 1.01 ± 0.029

GAAAGAAAAA
switch fluorescence ratio: 1.09 ± 0.043

GAAAGAGTGA
switch fluorescence ratio: 1.01 ± 0.016

GAAAGGCGGG
switch fluorescence ratio: 0.985 ± 0.0041

GAAAGGGTGT
switch fluorescence ratio: 1.03 ± 0.026

GAAAGGTCGG
switch fluorescence ratio: 1.21 ± 0.27

GAAAGTAAGC
switch fluorescence ratio: 0.993 ± 0.012

GAAAGTAATT
switch fluorescence ratio: 0.996 ± 0.051

GAAAGTAGGA
switch fluorescence ratio: 1.02 ± 0.029

GAAATACTTT
switch fluorescence ratio: 1.03 ± 0.014

GAAATCAGCA
switch fluorescence ratio: 1.03 ± 0.023

GAAATCGGTG
switch fluorescence ratio: 0.995 ± 0.036

GAAATGTACG
switch fluorescence ratio: 1.04 ± 0.021

GAAATGTAGG
switch fluorescence ratio: 0.995 ± 0.034

GAAATTCGGG
switch fluorescence ratio: 0.978 ± 0.025

GAAATTCTAT
switch fluorescence ratio: 0.985 ± 0.033

GAAATTGATG
switch fluorescence ratio: 0.983 ± 0.017

GAAATTTGG
switch fluorescence ratio: 1.01 ± 0.061

GAAATTTTTT
switch fluorescence ratio: 1 ± 0.034

GAACAAAGGG
switch fluorescence ratio: 0.988 ± 0.017

GAACAATGGG
switch fluorescence ratio: 0.977 ± 0.03

GAACACGGTA
switch fluorescence ratio: 1.204 ± 0.0023

GAACATCGGC
switch fluorescence ratio: 1.036 ± 0.0022

GAACCGGGTT
switch fluorescence ratio: 0.9987 ± 0.0079

GAACCGTAAA
switch fluorescence ratio: 1.128 ± 0.0073

GAACCTCGTG
switch fluorescence ratio: 1.03 ± 0.035

GAACGATGTT
switch fluorescence ratio: 0.9787 ± 0.0032

GAACGCCGGC
switch fluorescence ratio: 0.939 ± 0.034

GAACGGTATG
switch fluorescence ratio: 1.02 ± 0.051

GAACGGTGGG
switch fluorescence ratio: 0.976 ± 0.019

GAACGTCTGC
switch fluorescence ratio: 1.08 ± 0.011

GAACGTGGGT
switch fluorescence ratio: 0.987 ± 0.052

GAACGTTTGG
switch fluorescence ratio: 1.04 ± 0.074

GAACTAGGGC
switch fluorescence ratio: 1.02 ± 0.1

GAACTCGGCT
switch fluorescence ratio: 0.959 ± 0.12

GAACTCTTGT
switch fluorescence ratio: 1.05 ± 0.096

GAACTGCGGA
switch fluorescence ratio: 1.01 ± 0.019

GAAGAAAACA
switch fluorescence ratio: 0.955 ± 0.089

GAAGAACGGG
switch fluorescence ratio: 1.006 ± 0.0036

GAAGATAGGG
switch fluorescence ratio: 0.998 ± 0.011

GAAGATGAAA
switch fluorescence ratio: 0.984 ± 0.017

GAAGATTTGG
switch fluorescence ratio: 0.981 ± 0.04

GAAGCAACCG
switch fluorescence ratio: 1.384 ± 0.01

GAAGCATTTT
switch fluorescence ratio: 1.07 ± 0.045

GAAGCGACTC
switch fluorescence ratio: 2.42 ± 0.03

GAAGCGGTGG
switch fluorescence ratio: 0.954 ± 0.09

GAAGCTTATA
switch fluorescence ratio: 1.251 ± 0.0019

GAAGGAAGAG
switch fluorescence ratio: 1.03 ± 0.025

GAAGGAAGTT
switch fluorescence ratio: 1.01 ± 0.041

GAAGGACGGG
switch fluorescence ratio: 1 ± 0.025

GAAGGAGGGC
switch fluorescence ratio: 0.995 ± 0.085

GAAGGCACGG
switch fluorescence ratio: 1.04 ± 0.047

GAAGGCACTA
switch fluorescence ratio: 1.03 ± 0.045

GAAGGCATGG
switch fluorescence ratio: 1.03 ± 0.015

GAAGGCCATG
switch fluorescence ratio: 1.016 ± 0.0075

GAAGGCCTAG
switch fluorescence ratio: 0.9763 ± 0.0042

GAAGGCCTTG
switch fluorescence ratio: 1.01 ± 0.025

GAAGGCTCTG
switch fluorescence ratio: 0.9922 ± 0.0071

GAAGGGAGTG
switch fluorescence ratio: 0.986 ± 0.084

GAAGGGATGG
switch fluorescence ratio: 1.08 ± 0.15

GAAGGGATTG
switch fluorescence ratio: 1.02 ± 0.041

GAAGGGCAAG
switch fluorescence ratio: 1.02 ± 0.038

GAAGGGCTGG
switch fluorescence ratio: 0.972 ± 0.022

GAAGGGGAAT
switch fluorescence ratio: 1.003 ± 0.0052

GAAGGGGTGA
switch fluorescence ratio: 1.03 ± 0.053

GAAGGGTCTG
switch fluorescence ratio: 0.969 ± 0.012

GAAGGTGAGG
switch fluorescence ratio: 1.01 ± 0.019

GAAGGTGCGA
switch fluorescence ratio: 1.15 ± 0.052

GAAGGTGTTG
switch fluorescence ratio: 1.036 ± 0.0084

GAAGGTTATA
switch fluorescence ratio: 1 ± 0.047

GAAGGTTCAT
switch fluorescence ratio: 0.961 ± 0.022

GAAGGTTGAG
switch fluorescence ratio: 1.025 ± 0.009

GAAGGTTTGG
switch fluorescence ratio: 0.981 ± 0.03

GAAGTAAAAA
switch fluorescence ratio: 1.01 ± 0.026

GAAGTAAGGA
switch fluorescence ratio: 1.01 ± 0.074

GAAGTAATAG
switch fluorescence ratio: 4.39 ± 0.18

GAAGTAGAAA
switch fluorescence ratio: 0.9958 ± 0.0016

GAAGTAGGGG
switch fluorescence ratio: 0.977 ± 0.033

GAAGTAGTTA
switch fluorescence ratio: 1.006 ± 0.0082

GAAGTCCATG
switch fluorescence ratio: 1.01 ± 0.014

GAAGTGAGCG
switch fluorescence ratio: 1.028 ± 0.0063

GAAGTGTTGG
switch fluorescence ratio: 1.004 ± 0.0049

GAAGTTAGGG
switch fluorescence ratio: 0.981 ± 0.032

GAAGTTCGGC
switch fluorescence ratio: 1.006 ± 0.0056

GAAGTTGCGA
switch fluorescence ratio: 0.9835 ± 0.0091

GAAGTTTTGG
switch fluorescence ratio: 0.996 ± 0.028

GAAGTTTTGT
switch fluorescence ratio: 1.016 ± 0.0088

GAATACGGTT
switch fluorescence ratio: 1.26 ± 0.44

GAATAGCATA
switch fluorescence ratio: 1.05 ± 0.018

GAATAGGGGA
switch fluorescence ratio: 1.02 ± 0.022

GAATATACCG
switch fluorescence ratio: 1.03 ± 0.042

GAATATACTG
switch fluorescence ratio: 1.05 ± 0.029

GAATATATTT
switch fluorescence ratio: 0.993 ± 0.019

GAATCACAGC
switch fluorescence ratio: 1.02 ± 0.033

GAATCGGCGT
switch fluorescence ratio: 0.991 ± 0.058

GAATCGTAGG
switch fluorescence ratio: 0.986 ± 0.016

GAATCTAGTG
switch fluorescence ratio: 1.019 ± 0.0039

GAATCTTAGG
switch fluorescence ratio: 1.03 ± 0.024

GAATGATGGG
switch fluorescence ratio: 0.987 ± 0.024

GAATGCCGGG
switch fluorescence ratio: 1.03 ± 0.054

GAATGCCTGT
switch fluorescence ratio: 1.033 ± 0.0065

GAATGGCACA
switch fluorescence ratio: 0.998 ± 0.016

GAATGGGGAA
switch fluorescence ratio: 1.02 ± 0.021

GAATGGGGCT
switch fluorescence ratio: 0.987 ± 0.037

GAATGGGGGA
switch fluorescence ratio: 1.02 ± 0.019

GAATGGGTCG
switch fluorescence ratio: 0.989 ± 0.033

GAATGGGTTG
switch fluorescence ratio: 1.01 ± 0.028

GAATGTAGCA
switch fluorescence ratio: 1.03 ± 0.011

GAATGTAGGG
switch fluorescence ratio: 0.967 ± 0.046

GAATGTCCGT
switch fluorescence ratio: 0.992 ± 0.015

GAATGTGCAT
switch fluorescence ratio: 1.05 ± 0.047

GAATGTGGGG
switch fluorescence ratio: 0.982 ± 0.019

GAATGTTCGG
switch fluorescence ratio: 0.999 ± 0.051

GAATGTTCTT
switch fluorescence ratio: 1.0298 ± 6.1e-05

GAATTAAACG
switch fluorescence ratio: 1.02 ± 0.024

GAATTAAATG
switch fluorescence ratio: 1.037 ± 0.0019

GAATTAGGTG
switch fluorescence ratio: 1.21 ± 0.029

GAATTATATT
switch fluorescence ratio: 0.988 ± 0.021

GAATTCAGGG
switch fluorescence ratio: 0.99 ± 0.014

GAATTCAGTG
switch fluorescence ratio: 0.9953 ± 0.0096

GAATTGAGAA
switch fluorescence ratio: 0.972 ± 0.035

GAATTGGAAG
switch fluorescence ratio: 0.968 ± 0.025

GAATTGTATT
switch fluorescence ratio: 0.993 ± 0.06

GAATTTAGCA
switch fluorescence ratio: 1.02 ± 0.031

GAATTTGAGT
switch fluorescence ratio: 0.9741 ± 0.0089

GAATTTGTTG
switch fluorescence ratio: 1.001 ± 0.0063

GAATTTTCGC
switch fluorescence ratio: 0.995 ± 0.029

GAATTTTGGG
switch fluorescence ratio: 1 ± 0.032

GACAACGTA
switch fluorescence ratio: 0.9967 ± 0.0095

GACAATTTCT
switch fluorescence ratio: 1.02 ± 0.072

GACACACCCG
switch fluorescence ratio: 1.13 ± 0.046

GACACCATCC
switch fluorescence ratio: 1.55 ± 0.18

GACACGAGGT
switch fluorescence ratio: 1.013 ± 0.0084

GACACGGGGA
switch fluorescence ratio: 1.01 ± 0.041

GACAGACGGG
switch fluorescence ratio: 1.13 ± 0.049

GACAGAGGTG
switch fluorescence ratio: 1.03 ± 0.031

GACAGCAGGG
switch fluorescence ratio: 1.03 ± 0.025

GACAGGGGGA
switch fluorescence ratio: 1.035 ± 0.0072

GACAGGTGAG
switch fluorescence ratio: 1.15 ± 0.058

GACAGTCTCA
switch fluorescence ratio: 1.02 ± 0.021

GACAGTGGTA
switch fluorescence ratio: 0.973 ± 0.013

GACAGTTTGT
switch fluorescence ratio: 1.01 ± 0.033

GACATAAATG
switch fluorescence ratio: 1.03 ± 0.12

GACATAGACC
switch fluorescence ratio: 1.048 ± 0.0075

GACATTTTGC
switch fluorescence ratio: 1.05 ± 0.028
